Test results from patent US20260185093.

Tested on: T1, SpuFz1 (FZID16) (Spizellomyces punctatus)
T1 sequence: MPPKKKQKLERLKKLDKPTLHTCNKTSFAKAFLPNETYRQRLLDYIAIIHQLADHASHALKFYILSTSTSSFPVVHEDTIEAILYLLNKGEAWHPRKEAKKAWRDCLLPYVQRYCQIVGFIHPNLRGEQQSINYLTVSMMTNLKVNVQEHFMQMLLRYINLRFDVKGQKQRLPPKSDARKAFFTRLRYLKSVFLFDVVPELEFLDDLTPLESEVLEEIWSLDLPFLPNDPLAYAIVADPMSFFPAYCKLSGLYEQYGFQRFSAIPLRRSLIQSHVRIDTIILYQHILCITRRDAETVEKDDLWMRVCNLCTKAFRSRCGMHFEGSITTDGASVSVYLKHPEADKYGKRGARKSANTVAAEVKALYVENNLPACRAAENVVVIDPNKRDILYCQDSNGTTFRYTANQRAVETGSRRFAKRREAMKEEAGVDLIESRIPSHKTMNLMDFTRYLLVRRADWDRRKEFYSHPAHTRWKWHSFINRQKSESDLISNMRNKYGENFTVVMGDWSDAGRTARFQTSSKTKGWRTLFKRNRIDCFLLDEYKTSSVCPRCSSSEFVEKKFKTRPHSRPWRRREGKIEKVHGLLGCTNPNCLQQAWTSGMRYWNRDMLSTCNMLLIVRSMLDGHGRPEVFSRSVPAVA
Experiment: cell_activity
Conditions: HEK293FT, TAM CATA

Sequence	activity (gID7, longest initial scaffold)	activity (gID7, minimal omegaRNA)
GUCCACGGACUGCUGGGUUGUACCAACCCUAACUGUUUGCAGCAAGCCUGGACAUCGGGAAUGCGCUACUGGAAUCGAGAUAUGCUGUCAACCUGCAACAUGCUAUUGAUUGUGAGAUCAAUGUUGGAUGGACACGGUAGACCAGAAGUGUUCAGCAGGAGUGUUCCAGCCGUAGCGUAGAACGUAGAUUGGUUAGAUUAGGUUUUCCGAGCCGGUUGUCGCGCGGUUCAAUCCCUGGUGCGGGUGCUAGUGCCAAUACCCACCGGCUCCGCACUAGCAUUCCUUAACACAUCACU / GCATTCCTTAACACATCACT / AGTGATGTGTTAAGGAATGC	0.78 % indel	
GUUUUCCGAGCCGGUUGUCGCGCGGUUCAAUCCCUGGUGCGGGUGCUAGUGCCAAUACCCACCGGCUCCGCACUAGCAUUCCUUAACACAUCACU / GCATTCCTTAACACATCACT / AGTGATGTGTTAAGGAATGC		0.17 % indel
